Tests used:
[1] = target: Manα2Manα2Manα-ThrB27 insulin glycoform 13 (human); assay: AUC
[2] = target: unglycosylated human insulin 1 (human); assay: AUC

| Substance | percent monomer [1] [%] | stoichiometry N [2] |
| --- | --- | --- |
| Manα2Manα2Manα-ThrB27 insulin glycoform 13 (natural protein) | > 70 | – |
| unglycosylated human insulin 1 (natural protein) | – | 2 |

— PMC6287623
